Laboratory results: patent US20130149320A1 (CENTRE NATIONAL DE LA RECHERCHE SCIENTIFIQUE, published 2013)
Ends that are not written are not given here.

Target: T1, Asf1 from Xenopus laevis (endogenous, high speed egg extract) (Xenopus laevis, UniProt Q69DB9 1-201, limits assumed)
T1 construct: also called Asf1 from X. laevis
Assay: GST pull-down on Xenopus egg extract (HSE), Western blot
Experimental: FIG. 22. Inhibition of chromatin assembly with the B-domain of HIRA. FIG. 22A Binding of the wild-type but not the mutated form (I461D) of the B-domain of HIRA to Asf1. GST pull-down was performed on HSE extracts with […] of recombinant GST B-domain of HIRA proteins on beads. Input and flowthrough are 10% of the immunoprecipitated material. […] FIG. 22B The B-domain of HIRA inhibits nucleosome assembly independent of replication. In vitro nucleosome assembly reactions independent of DNA synthesis were performed with increasing amounts (2, 4 or 8 mg) of the recombinant GST HIRA B-domain or its mutated form (I461D) added directly into the nucleosome assembly reaction mix. The purified plasmid DNA was analyzed by agarose elecrophoresis and was visualized by staining with ethidium bromide (EtBr). The migration positions of DNA plasmid form 1 (supercoiled), form 11 (nicked circular) and lr (closed circular) are indicated.
GST pull-downs were performed by mixing […] of High speed xenopus egg extract (HSE prepared as described in (Almouzni, 1998)), 1X nucleosome assembly buffer, 300 ng p^{bluescript}, 4 mM ATP, […] creatine kinase and 3 mg of recombinant protein on beads during 3 h at 23° C. The flow through was recovered and beads were washed 3 times with PBS supplemented with 150 mM NaCl and 0,5% NP40. Different fractions were loaded on a NuPAGE 4-12% (Invitrogen) and ran in MES buffer. […]

T1 sequence (Q69DB9 whole entry): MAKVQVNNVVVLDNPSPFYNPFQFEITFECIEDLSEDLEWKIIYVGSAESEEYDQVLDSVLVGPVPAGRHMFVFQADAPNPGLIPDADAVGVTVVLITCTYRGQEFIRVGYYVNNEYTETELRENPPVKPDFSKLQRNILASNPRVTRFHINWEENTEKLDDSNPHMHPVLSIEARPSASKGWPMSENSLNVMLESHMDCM

B1: recombinant GST HIRA B-domain I461D (mutated Xenopus laevis HIRA B-domain, aa 435-480) (other, not shown: a dimerising Fc or GST; small tags and cut ends)
chain: GESLEDIRKNLLKKQVETRTADGRRRDTPLCIAQLDTGDFSTAFFN
modifications: also: GST fusion tag, sequence not given here
notes: also called mutated GST-B-domain I461D; mutated form (I461D) of the B-domain of HIRA
B1: no binding (tested: 3 mg of recombinant protein on beads).
